Sequences and labels used below:
B1: PSD2 (parent)
chain: LTHFSRRYCQCNPDDSTSEDGIHT
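Further: lentivirally expressed fusions sorted by FACS into six bins by GFP to DsRed ratio, PSI derived from sequencing read proportions per bin multiplied by bin number.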

The variants in the series derive from B1. The series can be described thus: protein stability index of a GFP-peptide fusion (GPS, HEK-293T) (PSI 1-6); higher = more stable. Conditions: c terminus: a fixed tail appended.
LTHFSRRYCQFNPDDSTSEDGIHT [C11F]: the protein stability index came out at 3.12. The figure for LTHFSRRYCQYNPDDSTSEDGIHT [C11Y] is 3.74; for LTHFSRRYCQSNPDDSTSEDGIHT [C11S] it is 4.61; for LTHFSRRYCQHNPDDSTSEDGIHT [C11H] it is 4.17.

In the case of LTHFSRRYCQLNPDDSTSEDGIHT [C11L], the protein stability index is 3.65. Regarding LTHFSRRYCQINPDDSTSEDGIHT [C11I], the protein stability index is 4.31.

Take LTHFSRRYCQMNPDDSTSEDGIHT [C11M]: the protein stability index came out at 3.84. Turning to LTHFSRRYCQANPDDSTSEDGIHT [C11A], the protein stability index worked out at 4.22. As to LTHFSRRYCQQNPDDSTSEDGIHT [C11Q], the protein stability index amounted to 4.71.

As for LTHFSRRYCQVNPDDSTSEDGIHT [C11V], the protein stability index was 4.5. As for LTHFSRRYCQRNPDDSTSEDGIHT [C11R], the protein stability index turned out to be 4.18. As for LTHFSRRYCQPNPDDSTSEDGIHT [C11P], the protein stability index was found to be 4.41. LTHFSRRYCQTNPDDSTSEDGIHT [C11T]: the protein stability index turned out to be 4.31. Turning to LTHFSRRYCQENPDDSTSEDGIHT [C11E], the protein stability index was 4.38. For the variant LTHFSRRYCQNNPDDSTSEDGIHT [C11N], the protein stability index was 4.41. Regarding LTHFSRRYCQGNPDDSTSEDGIHT [C11G], the protein stability index was 4.56. For LTHFSRRYCQKNPDDSTSEDGIHT [C11K] the value was 4.52; for LTHFSRRYCQDNPDDSTSEDGIHT [C11D], 4.31; for LTHFSRRICQCNPDDSTSEDGIHT [Y8I], 3.48. LTHFSRRGCQCNPDDSTSEDGIHT [Y8G]: the protein stability index is 3.57. In the case of LTHFSRRACQCNPDDSTSEDGIHT [Y8A], the protein stability index stood at 3.75. For LTHFSRRECQCNPDDSTSEDGIHT [Y8E], the protein stability index worked out at 5.36. Turning to LTHFSRRLCQCNPDDSTSEDGIHT [Y8L], the protein stability index was found to be 3.86. Consider LTHFSRRRCQCNPDDSTSEDGIHT [Y8R], for which the protein stability index stood at 3.7. Regarding LTHFSRRCCQCNPDDSTSEDGIHT [Y8C], the protein stability index was determined as 3.01. On to LTHFSRRQCQCNPDDSTSEDGIHT [Y8Q], for which the protein stability index was 3.98. Regarding LTHFSRRKCQCNPDDSTSEDGIHT [Y8K], the protein stability index is 3.66. The figure for LTHFSRRFCQCNPDDSTSEDGIHT [Y8F] is 3.27; for LTHFSRRVCQCNPDDSTSEDGIHT [Y8V] it is 3.8. Consider LTHFSRRSCQCNPDDSTSEDGIHT [Y8S], for which the protein stability index amounted to 3.93. Turning to LTHFSRRWCQCNPDDSTSEDGIHT [Y8W], the protein stability index is 2.36. Take LTHFSRRTCQCNPDDSTSEDGIHT [Y8T]: the protein stability index amounted to 4.18. In the case of LTHFSRRNCQCNPDDSTSEDGIHT [Y8N], the protein stability index came out at 4.74. On to LTHFSRRHCQCNPDDSTSEDGIHT [Y8H], for which the protein stability index stood at 3.88. With LTHFSRRDCQCNPDDSTSEDGIHT [Y8D], the protein stability index came to 4.72.

In the case of LTHFSRRPCQCNPDDSTSEDGIHT [Y8P], the protein stability index was 4.36. For LTHFSRRMCQCNPDDSTSEDGIHT [Y8M] the value was 3.62; for LTHFSRRYCQCIPDDSTSEDGIHT [N12I], 2.77; for LTHFSRRYCQCHPDDSTSEDGIHT [N12H], 3.67.

LTHFSRRYCQCRPDDSTSEDGIHT [N12R]: the protein stability index stood at 3.21. For the variant LTHFSRRYCQCMPDDSTSEDGIHT [N12M], the protein stability index is 3.52. The figure for LTHFSRRYCQCCPDDSTSEDGIHT [N12C] is 2.82; for LTHFSRRYCQCSPDDSTSEDGIHT [N12S] it is 4.01. With LTHFSRRYCQCVPDDSTSEDGIHT [N12V], the protein stability index was found to be 3.11. The figure for LTHFSRRYCQCYPDDSTSEDGIHT [N12Y] is 2.39; for LTHFSRRYCQCAPDDSTSEDGIHT [N12A] it is 3.34; for LTHFSRRYCQCDPDDSTSEDGIHT [N12D] it is 4.66.

As to LTHFSRRYCQCEPDDSTSEDGIHT [N12E], the protein stability index was found to be 4. The figure for LTHFSRRYCQCWPDDSTSEDGIHT [N12W] is 3.13. LTHFSRRYCQCGPDDSTSEDGIHT [N12G]: the protein stability index is 2.83. Turning to LTHFSRRYCQCPPDDSTSEDGIHT [N12P], the protein stability index turned out to be 3.63. For LTHFSRRYCQCQPDDSTSEDGIHT [N12Q] the value was 3.13; for LTHFSRRYCQCTPDDSTSEDGIHT [N12T], 3.69. Regarding LTHFSRRYCQCFPDDSTSEDGIHT [N12F], the protein stability index came out at 2.69. With LTHFSRRYCQCKPDDSTSEDGIHT [N12K], the protein stability index came out at 3.37. Turning to LTHFSRRYCQCLPDDSTSEDGIHT [N12L], the protein stability index came out at 2.96. For LTHMSRRYCQCNPDDSTSEDGIHT [F4M] the value was 3.49; for LTHLSRRYCQCNPDDSTSEDGIHT [F4L], 3.5.

Regarding LTHNSRRYCQCNPDDSTSEDGIHT [F4N], the protein stability index was 4.51. On to LTHYSRRYCQCNPDDSTSEDGIHT [F4Y], for which the protein stability index is 2.85. Turning to LTHTSRRYCQCNPDDSTSEDGIHT [F4T], the protein stability index was found to be 4.07. For LTHESRRYCQCNPDDSTSEDGIHT [F4E] the value was 4.55; for LTHRSRRYCQCNPDDSTSEDGIHT [F4R], 3.33. For LTHGSRRYCQCNPDDSTSEDGIHT [F4G], the protein stability index was 4.57.

As to LTHISRRYCQCNPDDSTSEDGIHT [F4I], the protein stability index is 3.17. The figure for LTHHSRRYCQCNPDDSTSEDGIHT [F4H] is 4.51; for LTHQSRRYCQCNPDDSTSEDGIHT [F4Q] it is 3.73.

LTHPSRRYCQCNPDDSTSEDGIHT [F4P]: the protein stability index was determined as 4.18. As for LTHSSRRYCQCNPDDSTSEDGIHT [F4S], the protein stability index stood at 3.61. Turning to LTHVSRRYCQCNPDDSTSEDGIHT [F4V], the protein stability index worked out at 3.16. With LTHWSRRYCQCNPDDSTSEDGIHT [F4W], the protein stability index is 3.31. Turning to LTHFSERYCQCNPDDSTSEDGIHT [R6E], the protein stability index turned out to be 4.83. On to LTHFSARYCQCNPDDSTSEDGIHT [R6A], for which the protein stability index came to 4.22. For the variant LTHFSWRYCQCNPDDSTSEDGIHT [R6W], the protein stability index worked out at 2.95.

For LTHFSSRYCQCNPDDSTSEDGIHT [R6S], the protein stability index is 4.02.

LTHFSNRYCQCNPDDSTSEDGIHT [R6N]: the protein stability index is 4.12.

For the variant LTHFSVRYCQCNPDDSTSEDGIHT [R6V], the protein stability index came to 3.08. Turning to LTHFSQRYCQCNPDDSTSEDGIHT [R6Q], the protein stability index was found to be 3.49. On to LTHFSGRYCQCNPDDSTSEDGIHT [R6G], for which the protein stability index came to 4.2. In the case of LTHFSDRYCQCNPDDSTSEDGIHT [R6D], the protein stability index is 4.93. Take LTHFSMRYCQCNPDDSTSEDGIHT [R6M]: the protein stability index came out at 3.29. For LTHFSPRYCQCNPDDSTSEDGIHT [R6P], the protein stability index amounted to 3.9. On to LTHFSLRYCQCNPDDSTSEDGIHT [R6L], for which the protein stability index was determined as 3.3. For LTHFSCRYCQCNPDDSTSEDGIHT [R6C], the protein stability index is 2.8. As for LTHFSYRYCQCNPDDSTSEDGIHT [R6Y], the protein stability index amounted to 2.74. For LTHFSKRYCQCNPDDSTSEDGIHT [R6K] the value was 3.21.

For the variant LTHFSHRYCQCNPDDSTSEDGIHT [R6H], the protein stability index came out at 3.93. Consider LTHFSTRYCQCNPDDSTSEDGIHT [R6T], for which the protein stability index is 3.78. With LTHFSIRYCQCNPDDSTSEDGIHT [R6I], the protein stability index was found to be 2.75. For LTHFSFRYCQCNPDDSTSEDGIHT [R6F] the value was 2.33. For LTHFSRRYYQCNPDDSTSEDGIHT [C9Y] the value was 4.06; for LTHFSRRYMQCNPDDSTSEDGIHT [C9M], 4.16.

For the variant LTHFSRRYEQCNPDDSTSEDGIHT [C9E], the protein stability index came to 4.16. Consider LTHFSRRYHQCNPDDSTSEDGIHT [C9H], for which the protein stability index came out at 3.84.

The values above are taken from the supplement of paper PMC10567573.
